Measurements taken from patent publication US20110207670.

Columns and labels:
[1] = test system: TMD2-I424A (TMD2 in which the isoleucine at position 424 is substituted with alanine)
[2] = test system: human TMD2 (wild-type soluble human thrombomodulin truncated immediately after EGF6, without signal peptide)
[3] = test system: human TMD1 (soluble thrombomodulin containing the amino terminal domain, EGF domain and ST domain, without signal peptide)
[4] = test system: TM-LE15 (truncated form of TMD2 in which the EGF 6 domain is removed)
Chain of TM-LE15 (truncated form of TMD2 in which the EGF 6 domain is removed) (chain, as listed by the source): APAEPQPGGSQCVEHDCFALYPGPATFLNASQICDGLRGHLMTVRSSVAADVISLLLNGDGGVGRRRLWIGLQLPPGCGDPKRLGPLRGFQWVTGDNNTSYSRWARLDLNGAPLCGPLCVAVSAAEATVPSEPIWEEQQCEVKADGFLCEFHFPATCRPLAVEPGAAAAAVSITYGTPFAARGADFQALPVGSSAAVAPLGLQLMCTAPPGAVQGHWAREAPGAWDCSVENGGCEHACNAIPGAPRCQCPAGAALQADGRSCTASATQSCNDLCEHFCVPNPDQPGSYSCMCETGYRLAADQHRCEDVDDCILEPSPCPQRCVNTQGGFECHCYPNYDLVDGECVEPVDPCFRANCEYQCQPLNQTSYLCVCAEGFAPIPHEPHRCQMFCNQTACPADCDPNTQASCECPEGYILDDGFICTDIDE

Work on human thrombin yielded a Vmax (mOD405/min) of human protein C activation [1] of 6.9 mOD405/min, a Vmax (mOD405/min) of human protein C activation [2] of 39.1 mOD405/min and a Vmax (mOD405/min) of human protein C activation [3] of 43.3 mOD405/min. The Vmax (mOD405/min) of human protein C activation [4] was 8.3 mOD405/min.
